In PMC12573921, “‘Mix-it-up’: accessible time-resolved cryo-EM on the millisecond timescale” (IUCrJ, 2025):

B1: Cowpea chlorotic mottle virus (CCMV) coat protein (natural protein)
chain: MSTVGTGKLTRAQRRAAARKNKRNTRVVQPVIVEPIASGQGKAIKAWTGYSVSKWTASCAAAEAKVTSAITISLPNELSSERNKQLKVGRVLLWLGLLPSVSGTVKSCVTETQTTAAASFQVALAVADNSKDVVAAMYPEAFKGITLEQLTADLTIYLYSSAALTEGDVIVHLEVEHVRPTFDDSFTPVY
notes: also called CCMV capsid; copies: 180
B2: E. coli GroES (natural protein, UniProt P0A6F9 1-97, looked up)
chain: MNIRPLHDRVIVKRKEVETKSAGGIVLTGSAAAKSTRGEVLAVGNGRILENGEVKPLDVKVGDIVIFNDGYGVKSEKIDNEEVLIMSESDILAIVEA
notes: GroES co-chaperonin of E. coli; purified as in Godek et al., 2024; source: T7 Express E. coli, Trc-promoted GroES/GroEL plasmid, purified (ion exchange, FFSP column at pH 4.6, Superdex 75); gift from the Steven Johnson laboratory

Columns and labels:
cryo-EM structure = molecular target: the molecule itself; assay: cryo-EM structure
[1] = molecular target: the molecule itself; assay: cryo-EM structure; 8.6 µM GroEL + 17.1 µM GroES on the grid, 83.3 mM ATP with gold fiducials sprayed with MIU, 300 ms

Protein | binding result (cryo-EM structure) | stoichiometry N [1]
B1 | binds | –
B2 | – | 7
